Assay results taken from the supplement of paper PMC12764529.
± gives the half width of the 95% confidence interval.

Experiments:
[1] = folding stability dG unfold from trypsin proteolysis; higher = more stable
Procedure, shortened: (§1)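 Sequencing followed digestion of designed mini-proteins with trypsin and chymotrypsin, each at 11 concentrations in threefold dilutions together with a no-protease condition. The mini-proteins were under 80 residues, had no cysteine, sat in a PA-tagged cDNA display construct, and were kept only if AlphaFold2 dimer inter-PAE was above 15. From the counts, Bayesian fitting gave K50, and unfolding free energy was derived against a sequence-predicted unfolded-state K50 and a shared folded-state K50, per protease or combined.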

[2] = folding stability dG unfold from chymotrypsin proteolysis; higher = more stable
Procedure, shortened: as §1

[3] = folding stability dG unfold (combined trypsin and chymotrypsin); higher = more stable
Procedure, shortened: as §1

| Sequence | folding stability dG unfold [1] [kcal/mol] | folding stability dG unfold [2] [kcal/mol] | folding stability dG unfold [3] [kcal/mol] |
| --- | --- | --- | --- |
| SAGGKVFTPEHLEELLKNVPADDPNATLTVTVEVPVVVLPTTDGDDNPLPAAAAPATVTLPITVLPASAGGS [r16_708_TrMRF] | 0.0702 ± 0.072 | 1.2 ± 0.018 | 0.837 ± 0.07 |
| SAGGKVKIVKIEIEEVDGKLKIRIVVEVDTPEDLEALKKAGVKKLKVEKRRLPNGRLLVVIEVEVEVKSAGG [r13_506_TrROS_Hall] | 2.46 ± 0.077 | 3.86 ± 0.074 | 3.42 ± 0.062 |
| SAGGKVKVVEIRYFPGTNTVEILVEDPGPYLATIRIPAAPDAPIEIDEDANFRVPDAPVVLGEVRPPSAGGS [r16_515_TrMRF] | 1.19 ± 0.027 | 0.843 ± 0.12 | 1.09 ± 0.072 |
| SAGGKVVVVPFPGPVTPETVAALAAKFIEEGLYDVPLVVVSEVEGRRPDGRPGRRRFGFVYVAKAPKSAGGS [r16_44_TrMRF] | 1.23 ± 0.051 | 1.98 ± 0.13 | 1.59 ± 0.1 |
| SAGGKVYRLPDGTRVLEVEVDGELYRLVVRRPDGEELVLEFESREEALEAAKALAEAGWEIVAVERVPSAGG [r13_727_TrROS_Hall] | 0.787 ± 0.038 | 0.807 ± 0.062 | 0.86 ± 0.06 |
| SAGGKVYYIEIPPELLEAFPDLVVEPVEQPEDFVVAPVFLSDKVLLVPIRVFSEDGKELFDFTLTSNPSAGG [r13_129_TrMRF] | 1.18 ± 0.027 | 1.77 ± 0.024 | 1.62 ± 0.037 |
| SAGGKYEYDPDNGYYRDEDGKMYYPMPPQIPPIEIPIPINLPNGQKLNIPVEFRTIEDALDALKKFFSAGGS [r8_440_TrROS] | 0.697 ± 0.033 | 1.13 ± 0.091 | 1.01 ± 0.14 |
| SAGGKYKIVEITIKVEPGQSPEEIAAEIAKKLAPPGEKVKVKVEKKDGYLRIYIINEETGEVVEEFELSAGG [r13_724_TrROS_Hall] | 1.66 ± 0.051 | 1.91 ± 0.06 | 1.88 ± 0.14 |
| SAGGLAPVYKTEDGVYLITPYNPETGELLETIPISEEDIEELSKEYGRDLTIEEIVKKLGYETEITVASAGG [r13_836_TrMRF] | 0.786 ± 0.057 | 0.99 ± 0.03 | 0.969 ± 0.06 |
| SAGGLDPDGKIRWQPITITIEIPIPPGDEELANKIADWLRDLGIEVEIKRNPNGYIQITVEFWVLVIDSAGG [r13_702_TrROS] | 3.82 ± 0.33 | 5.03 ± 0.29 | 4.89 ± 0.31 |
| SAGGLEILEVDPDTYTITIRFGDRPLEFTVPPDYPPTITITEDPDGSVTLTIEVPDRTETFTIPRELVESAG [r5_500_TrMRF] | 1.18 ± 0.021 | 1.84 ± 0.09 | 1.61 ± 0.083 |
| SAGGLIIPEEYEIVEKKAEILPDGSLRYTFILRPKSGELLLVEIRYPPDGSIEIEARRLTPEELKKALSAGG [r13_773_TrMRF] | 3.13 ± 0.076 | 3.71 ± 0.045 | 3.56 ± 0.074 |
| SAGGLKDILKELGFPIKSVTVQPMPMPNGMPMRTVSITFENPNGPKFEIEVMVMPNGEVMIDIEWVKPSAGG [r13_818_TrROS] | 2.23 ± 0.092 | 2.69 ± 0.11 | 2.48 ± 0.22 |
| SAGGLKEIAKQLGPGADKVEIEWEPQPHDDMEMYRWKIRVKNPNNGKKRKLEVSIMYDPNGNIRSIMISAGG [r13_358_TrROS] | 1.85 ± 0.12 | 2.38 ± 0.077 | 2.34 ± 0.14 |
| SAGGLKIVETKTEPEIGKRYVVIEVYKPETGKPILYVVPLDLEKGENSPEAVAKAILKELKLPPGVKASAGG [r13_362_TrMRF] | 0.58 ± 0.082 | 1.71 ± 0.16 | 1.24 ± 0.18 |
| SAGGLLVADEAGVPLSPVPPVPPIPVQVTFPDGTKVTIEYYPGLNEVKVEYEGDDPAKVAEIVKEILKSAGG [r13_701_JUSTAS] | 0.146 ± 0.15 | 0.444 ± 0.11 | 0.443 ± 0.13 |
| SAGGLNIKFEILEVYPSPNGMRMIIVRMTIEYPVPVYRRDPNGEWRPMPPGQEPVTIEIDFYIMVTPSAGGS [r16_693_TrROS] | 3.67 ± 0.11 | 5.11 ± 0.13 | 4.76 ± 0.18 |
| SAGGLPGLSAEELARRLAERLREALAAAGYTVEIELTVEITVTDEDGRTRTFTFTLRIRVEPPPPPPSAGGS [r16_550_TrROS_Hall] | 4.05 ± 0.069 | 5.15 ± 0.074 | 4.8 ± 0.12 |
| SAGGLPPGWKPIDIMVLVPPGEPLTEDQVEELAKEIARELQEKGVTIDVRVWPTDDWYFVSVDIQVPDSAGG [r13_442_TrROS] | 2.08 ± 0.11 | 1.31 ± 0.13 | 1.73 ± 0.18 |
| SAGGLRVHPNSLYIWIPPGGNFDDFVKEIAQELQKKGKPMEIKVEPFPDGWYWIRIKVDGKDIEIWMSAGGS [r16_771_TrROS] | 2.02 ± 0.065 | 3.24 ± 0.039 | 3.02 ± 0.1 |
| SAGGLSYIELEVEFPGGGSFEEAKARAEKLAEEVRKKLGLKEVKIEIKKNPDGSYRVKITIKVPSKLSAGGS [r8_3_JUSTAS] | 2.76 ± 0.063 | 3.04 ± 0.077 | 3.02 ± 0.14 |
| SAGGMADEELANMSLEEVIAAVKEAGAKTVTVTFPDGSTLTIDLGDDGVVTVTLTTPPGEKETFEIPSAGGS [r8_51_TrMRF] | 2.34 ± 0.17 | 2.73 ± 0.088 | 2.59 ± 0.11 |
| SAGGMAVPVKVRDPVNGNWKTLDNIESIDEVVEVDPTDGSRSYFVKLKGSGKWYVVDDPEAVEAAKGSAGGS [r8_206_TrMRF] | 1.17 ± 0.064 | 1.08 ± 0.14 | 1.12 ± 0.13 |
| SAGGMEEIEVEFEFTLPDGRTLRLTVRVRRFDGGIVVEVDVGGEEEEEREFMEEVAREIAERIAEEESAGGS [r8_416_TrMRF] | 2.92 ± 0.07 | 4.51 ± 0.11 | 4.12 ± 0.093 |
| SAGGMEEILKKLGVKKGDKVKIKIKVEKDGKTETVEIEVPVENLEDILKKLGLSKDQVKITEIKVEKESAGG [r13_681_TrROS_Hall] | 2.17 ± 0.14 | 3.84 ± 0.1 | 3.4 ± 0.073 |
| SAGGMEEIVKALPPEAGVVEIESEPLPLEDSILRRYRLRVYNPATGKWEELEVLIEYDKDGNIRRIVASAGG [r13_358_TrMRF] | 2.5 ± 0.043 | 3.94 ± 0.051 | 3.6 ± 0.2 |
